The values below are quoted from earlier work in PMC3905167.

Holding throughout (assay): given as Ka
One data set has as its target FcγRI (Homo sapiens) (UniProt P12314).
In data set [1] the target is FcγRIIIa (V158) (Homo sapiens) (UniProt P08637).
The target in data set [2] is FcγRIIa (R131) (Homo sapiens) (UniProt P12318).
Data set [3] deals with FcγRIIa (H131) (Homo sapiens) (UniProt P12318).
Data set [4] concerns the target FcγRIIIa (F158) (Homo sapiens) (UniProt P08637).

IgG4, sequence (P01861 whole entry): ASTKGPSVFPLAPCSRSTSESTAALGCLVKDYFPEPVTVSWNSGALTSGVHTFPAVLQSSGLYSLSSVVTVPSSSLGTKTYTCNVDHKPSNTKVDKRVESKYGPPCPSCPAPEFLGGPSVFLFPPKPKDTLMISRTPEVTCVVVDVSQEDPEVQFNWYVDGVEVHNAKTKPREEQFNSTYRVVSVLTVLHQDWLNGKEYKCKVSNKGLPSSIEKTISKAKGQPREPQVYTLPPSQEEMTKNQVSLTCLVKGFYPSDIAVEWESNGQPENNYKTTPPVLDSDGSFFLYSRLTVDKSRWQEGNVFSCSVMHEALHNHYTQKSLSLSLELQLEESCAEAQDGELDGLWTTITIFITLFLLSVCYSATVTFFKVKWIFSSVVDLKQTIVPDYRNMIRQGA
FcγRI (Homo sapiens), sequence (P12314 16-374): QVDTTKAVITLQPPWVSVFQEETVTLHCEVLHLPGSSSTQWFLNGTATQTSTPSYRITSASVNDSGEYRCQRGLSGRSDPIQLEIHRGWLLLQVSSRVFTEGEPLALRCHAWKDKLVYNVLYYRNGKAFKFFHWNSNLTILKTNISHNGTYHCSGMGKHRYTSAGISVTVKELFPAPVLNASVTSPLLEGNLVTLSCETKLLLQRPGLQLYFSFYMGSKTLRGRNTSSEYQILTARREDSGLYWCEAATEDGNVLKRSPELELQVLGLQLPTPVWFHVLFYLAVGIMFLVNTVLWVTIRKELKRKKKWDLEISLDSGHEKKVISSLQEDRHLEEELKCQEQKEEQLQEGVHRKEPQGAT
FcγRIIa (R131) (Homo sapiens), sequence (P12318 34-317): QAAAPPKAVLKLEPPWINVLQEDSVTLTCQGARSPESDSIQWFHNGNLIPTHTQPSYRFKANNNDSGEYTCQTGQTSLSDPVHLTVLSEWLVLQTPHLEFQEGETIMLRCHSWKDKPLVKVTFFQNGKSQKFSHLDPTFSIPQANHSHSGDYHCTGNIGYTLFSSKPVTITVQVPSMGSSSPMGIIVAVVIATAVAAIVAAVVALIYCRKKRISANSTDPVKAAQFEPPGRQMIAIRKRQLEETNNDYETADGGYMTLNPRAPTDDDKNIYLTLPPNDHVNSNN
FcγRIIa (H131) (Homo sapiens), sequence (P12318 34-317): as above
FcγRIIIa (V158) (Homo sapiens), sequence (P08637 17-254): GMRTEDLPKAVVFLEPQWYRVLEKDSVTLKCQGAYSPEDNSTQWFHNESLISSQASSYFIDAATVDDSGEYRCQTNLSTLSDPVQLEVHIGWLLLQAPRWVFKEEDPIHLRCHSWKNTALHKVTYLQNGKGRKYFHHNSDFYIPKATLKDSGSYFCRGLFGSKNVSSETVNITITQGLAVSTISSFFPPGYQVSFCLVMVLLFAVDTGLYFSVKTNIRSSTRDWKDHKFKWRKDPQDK
FcγRIIIa (F158) (Homo sapiens), sequence (P08637 17-254): as above

Consider IgG1 (from UniProt P01857), for which the Kd (commonly the concentration at which binding is half-saturated) with FcγRI (Homo sapiens) was 15.4 nM; in data set [1] it was 500 nM; in data set [2], 286 nM; in data set [3] it was 0.192 µM; in data set [4], 855 nM.
Take IgG4 (from UniProt P01861): the Kd with FcγRI (Homo sapiens) is 29.4 nM; in data set [1], 4000 nM; in data set [2], 4760 nM; in data set [3], 5.88 µM; in data set [4] it was 5000 nM.
